From publication PMC10296094 (2023)

Assays:
[1] = molecular target: fluorescein-labelled CaMKII peptide (Homo sapiens (Human), UniProt Q9UQM7, fluorescein attached to the non-native cysteine added to the N-terminus); assay: fluorescence polarisation/anisotropy; Ca2+ (1 mM CaCl2)
[2] = molecular target: fluorescein-labelled PMCA peptide (Bos taurus (Bovine), UniProt D3K0R6, fluorescein attached to the C-terminal native Lys); assay: as above
Sequence of fluorescein-labelled PMCA peptide (D3K0R6 1086-1105): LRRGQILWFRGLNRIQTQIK

Sequence of fluorescein-labelled CaMKII peptide (Q9UQM7 other isoform, or with tags, fused parts or gaps): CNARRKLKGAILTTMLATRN

binding result [1]: no binding | binding result [2]: no binding
B1: His6-tagged human centrin1 (protein)
chain: MASGFKKPSAASTGQKRKVAPKPELTEDQKQEVREAFDLFDVDGSGTIDAKELKVAMRALGFEPRKEEMKKMISEVDREGTGKISFNDFLAVMTQKMSEKDTKEEILKAFRLFDDDETGKISFKNLKRVANELGENLTDEELQEMIDEADRDGDGEVNEEEFLRIMKKTSLY
